{
  "source": "paper PMC11381544",
  "about": "(Nature Communications, 2024)",
  "key": {"[1]": {"test_system": "P3H1 within the PCP complex", "assay": "2-OG dependent oxygenase activity", "assay_type": "biochemical, human", "conditions": "Succinate-Glo assay, Fig. 1g, Fig. 3f, Supplementary Fig. 1f"}, "[2]": {"test_system": "CRTAP and PPIB", "assay": "Co-purification / SDS-PAGE of PCP complex with P3H1 mutants", "assay_type": "binding, human", "conditions": "co-expression with CRTAP and PPIB, Supplementary Fig. 1c"}},
  "data": [
    {"molecule": "PCP-P3H1D589A: PCP complex with P3H1 active-site mutation D589A (protein) EVESEAGWGMVTPDLLFAEGTAAYARGDWPGVVLSMERALRSRAALRALRLRCRTQCAADFPWELDPDWSPSPAQASGAAALRDLSFFGGLLRRAACLRRCLGPPAAHSLSEEMELEFRKRSPYNYLQVAYFKINKLEKAVAAAHTFFVGNPEHMEMQQNLDYYQTMSGVKEADFKDLETQPHMQEFRLGVRLYSEEQPQEAVPHLEAALQEYFVAYEECRALCEGPYDYDGYNYLEYNADLFQAITDHYIQVLNCKQNCVTELASHPSREKPFEDFLPSHYNYLQFAYYNIGNYTQAVECAKTYLLFFPNDEVMNQNLAYYAAMLGEEHTRSIGPRESAKEYRQRSLLEKELLFFAYDVFGIPFVDPDSWTPEEVIPKRLQEKQKSERETAVRISQEIGNLMKEIETLVEEKTKESLDVSRLTREGGPLLYEGISLTMNSKLLNGSQRVVMDGVISDHECQELQRLTNVAATSGDGYRGQTSPHTPNEKFYGVTVFKALKLGQEGKVPLQSAHLYYNVTEKVRRIMESYFRLDTPLYFSYSHLVCRTAIEEVQAERKDDSHPVHVANCILNAETLVCVKEPPAYTFRDYSAILYLNGDFDGGNFYFTELDAKTVTAEVQPQCGRAVGFSSGTENPHGVKAVTRGQRCAIALWFTLDPRHSERDRVQADDLVKMLFSPEEMDLSQEQPLDAQQGPPEPAQESLSGSESKPKDEL", "values": [
      {"measurement": "2OG-Fe (II) oxygenase / P3H1 activity, in words", "setting": "[1]", "value": "significantly decreased 2OG-dependent oxygenase activities"},
      {"measurement": "PCP complex formation of P3H1 active mutants", "setting": "[2]", "value": "could form PCP complex with CRTAP and PPIB"}
    ]},
    {"molecule": "PCP-P3H1H659A: PCP complex with P3H1 active-site mutation H659A (protein) EVESEAGWGMVTPDLLFAEGTAAYARGDWPGVVLSMERALRSRAALRALRLRCRTQCAADFPWELDPDWSPSPAQASGAAALRDLSFFGGLLRRAACLRRCLGPPAAHSLSEEMELEFRKRSPYNYLQVAYFKINKLEKAVAAAHTFFVGNPEHMEMQQNLDYYQTMSGVKEADFKDLETQPHMQEFRLGVRLYSEEQPQEAVPHLEAALQEYFVAYEECRALCEGPYDYDGYNYLEYNADLFQAITDHYIQVLNCKQNCVTELASHPSREKPFEDFLPSHYNYLQFAYYNIGNYTQAVECAKTYLLFFPNDEVMNQNLAYYAAMLGEEHTRSIGPRESAKEYRQRSLLEKELLFFAYDVFGIPFVDPDSWTPEEVIPKRLQEKQKSERETAVRISQEIGNLMKEIETLVEEKTKESLDVSRLTREGGPLLYEGISLTMNSKLLNGSQRVVMDGVISDHECQELQRLTNVAATSGDGYRGQTSPHTPNEKFYGVTVFKALKLGQEGKVPLQSAHLYYNVTEKVRRIMESYFRLDTPLYFSYSHLVCRTAIEEVQAERKDDSHPVHVDNCILNAETLVCVKEPPAYTFRDYSAILYLNGDFDGGNFYFTELDAKTVTAEVQPQCGRAVGFSSGTENPAGVKAVTRGQRCAIALWFTLDPRHSERDRVQADDLVKMLFSPEEMDLSQEQPLDAQQGPPEPAQESLSGSESKPKDEL", "values": [
      {"measurement": "2OG-Fe (II) oxygenase / P3H1 activity, in words", "setting": "[1]", "value": "significantly decreased 2OG-dependent oxygenase activities"},
      {"measurement": "PCP complex formation of P3H1 active mutants", "setting": "[2]", "value": "could form PCP complex with CRTAP and PPIB"}
    ]},
    {"molecule": "PCP-P3H1H587A: PCP complex with P3H1 active-site mutation H587A (protein) EVESEAGWGMVTPDLLFAEGTAAYARGDWPGVVLSMERALRSRAALRALRLRCRTQCAADFPWELDPDWSPSPAQASGAAALRDLSFFGGLLRRAACLRRCLGPPAAHSLSEEMELEFRKRSPYNYLQVAYFKINKLEKAVAAAHTFFVGNPEHMEMQQNLDYYQTMSGVKEADFKDLETQPHMQEFRLGVRLYSEEQPQEAVPHLEAALQEYFVAYEECRALCEGPYDYDGYNYLEYNADLFQAITDHYIQVLNCKQNCVTELASHPSREKPFEDFLPSHYNYLQFAYYNIGNYTQAVECAKTYLLFFPNDEVMNQNLAYYAAMLGEEHTRSIGPRESAKEYRQRSLLEKELLFFAYDVFGIPFVDPDSWTPEEVIPKRLQEKQKSERETAVRISQEIGNLMKEIETLVEEKTKESLDVSRLTREGGPLLYEGISLTMNSKLLNGSQRVVMDGVISDHECQELQRLTNVAATSGDGYRGQTSPHTPNEKFYGVTVFKALKLGQEGKVPLQSAHLYYNVTEKVRRIMESYFRLDTPLYFSYSHLVCRTAIEEVQAERKDDSHPVAVDNCILNAETLVCVKEPPAYTFRDYSAILYLNGDFDGGNFYFTELDAKTVTAEVQPQCGRAVGFSSGTENPHGVKAVTRGQRCAIALWFTLDPRHSERDRVQADDLVKMLFSPEEMDLSQEQPLDAQQGPPEPAQESLSGSESKPKDEL", "values": [
      {"measurement": "2OG-Fe (II) oxygenase / P3H1 activity, in words", "setting": "[1]", "value": "significantly decreased 2OG-dependent oxygenase activities"},
      {"measurement": "PCP complex formation of P3H1 active mutants", "setting": "[2]", "value": "could form PCP complex with CRTAP and PPIB"}
    ]},
    {"molecule": "PCP-P3H1R669A: PCP complex with P3H1 active-site mutation R669A (protein) EVESEAGWGMVTPDLLFAEGTAAYARGDWPGVVLSMERALRSRAALRALRLRCRTQCAADFPWELDPDWSPSPAQASGAAALRDLSFFGGLLRRAACLRRCLGPPAAHSLSEEMELEFRKRSPYNYLQVAYFKINKLEKAVAAAHTFFVGNPEHMEMQQNLDYYQTMSGVKEADFKDLETQPHMQEFRLGVRLYSEEQPQEAVPHLEAALQEYFVAYEECRALCEGPYDYDGYNYLEYNADLFQAITDHYIQVLNCKQNCVTELASHPSREKPFEDFLPSHYNYLQFAYYNIGNYTQAVECAKTYLLFFPNDEVMNQNLAYYAAMLGEEHTRSIGPRESAKEYRQRSLLEKELLFFAYDVFGIPFVDPDSWTPEEVIPKRLQEKQKSERETAVRISQEIGNLMKEIETLVEEKTKESLDVSRLTREGGPLLYEGISLTMNSKLLNGSQRVVMDGVISDHECQELQRLTNVAATSGDGYRGQTSPHTPNEKFYGVTVFKALKLGQEGKVPLQSAHLYYNVTEKVRRIMESYFRLDTPLYFSYSHLVCRTAIEEVQAERKDDSHPVHVDNCILNAETLVCVKEPPAYTFRDYSAILYLNGDFDGGNFYFTELDAKTVTAEVQPQCGRAVGFSSGTENPHGVKAVTRGQACAIALWFTLDPRHSERDRVQADDLVKMLFSPEEMDLSQEQPLDAQQGPPEPAQESLSGSESKPKDEL", "values": [
      {"measurement": "2OG-Fe (II) oxygenase / P3H1 activity, in words", "setting": "[1]", "value": "significantly decreased 2OG-dependent oxygenase activities"},
      {"measurement": "PCP complex formation of P3H1 active mutants", "setting": "[2]", "value": "could form PCP complex with CRTAP and PPIB"}
    ]},
    {"molecule": "PCP-P3H1W675L: PCP complex with OI-related P3H1 mutation W675L near the active site (protein) EVESEAGWGMVTPDLLFAEGTAAYARGDWPGVVLSMERALRSRAALRALRLRCRTQCAADFPWELDPDWSPSPAQASGAAALRDLSFFGGLLRRAACLRRCLGPPAAHSLSEEMELEFRKRSPYNYLQVAYFKINKLEKAVAAAHTFFVGNPEHMEMQQNLDYYQTMSGVKEADFKDLETQPHMQEFRLGVRLYSEEQPQEAVPHLEAALQEYFVAYEECRALCEGPYDYDGYNYLEYNADLFQAITDHYIQVLNCKQNCVTELASHPSREKPFEDFLPSHYNYLQFAYYNIGNYTQAVECAKTYLLFFPNDEVMNQNLAYYAAMLGEEHTRSIGPRESAKEYRQRSLLEKELLFFAYDVFGIPFVDPDSWTPEEVIPKRLQEKQKSERETAVRISQEIGNLMKEIETLVEEKTKESLDVSRLTREGGPLLYEGISLTMNSKLLNGSQRVVMDGVISDHECQELQRLTNVAATSGDGYRGQTSPHTPNEKFYGVTVFKALKLGQEGKVPLQSAHLYYNVTEKVRRIMESYFRLDTPLYFSYSHLVCRTAIEEVQAERKDDSHPVHVDNCILNAETLVCVKEPPAYTFRDYSAILYLNGDFDGGNFYFTELDAKTVTAEVQPQCGRAVGFSSGTENPHGVKAVTRGQRCAIALLFTLDPRHSERDRVQADDLVKMLFSPEEMDLSQEQPLDAQQGPPEPAQESLSGSESKPKDEL", "values": [
      {"measurement": "2OG-Fe (II) oxygenase / P3H1 activity, in words", "setting": "[1]; listed as W675L^P3H1", "value": "reduced enzymatic activities"}
    ]},
    {"molecule": "P3H1/CRTAP: purified P3H1/CRTAP binary complex obtained when PPIB was excluded from co-transfection (protein, left off: twin Strep tag, C-terminal, kept) chain 1: EVESEAGWGMVTPDLLFAEGTAAYARGDWPGVVLSMERALRSRAALRALRLRCRTQCAADFPWELDPDWSPSPAQASGAAALRDLSFFGGLLRRAACLRRCLGPPAAHSLSEEMELEFRKRSPYNYLQVAYFKINKLEKAVAAAHTFFVGNPEHMEMQQNLDYYQTMSGVKEADFKDLETQPHMQEFRLGVRLYSEEQPQEAVPHLEAALQEYFVAYEECRALCEGPYDYDGYNYLEYNADLFQAITDHYIQVLNCKQNCVTELASHPSREKPFEDFLPSHYNYLQFAYYNIGNYTQAVECAKTYLLFFPNDEVMNQNLAYYAAMLGEEHTRSIGPRESAKEYRQRSLLEKELLFFAYDVFGIPFVDPDSWTPEEVIPKRLQEKQKSERETAVRISQEIGNLMKEIETLVEEKTKESLDVSRLTREGGPLLYEGISLTMNSKLLNGSQRVVMDGVISDHECQELQRLTNVAATSGDGYRGQTSPHTPNEKFYGVTVFKALKLGQEGKVPLQSAHLYYNVTEKVRRIMESYFRLDTPLYFSYSHLVCRTAIEEVQAERKDDSHPVHVDNCILNAETLVCVKEPPAYTFRDYSAILYLNGDFDGGNFYFTELDAKTVTAEVQPQCGRAVGFSSGTENPHGVKAVTRGQRCAIALWFTLDPRHSERDRVQADDLVKMLFSPEEMDLSQEQPLDAQQGPPEPAQESLSGSESKPKDEL chain 2: QYERYSFRSFPRDELMPLESAYRHALDKYSGEHWAESVGYLEISLRLHRLLRDSEAFCHRNCSAAPQPEPAAGLASYPELRLFGGLLRRAHCLKRCKQGLPAFRQSQPSREVLADFQRREPYKFLQFAYFKANNLPKAIAAAHTFLLKHPDDEMMKRNMAYYKSLPGAEDYIKDLETKSYESLFIRAVRAYNGENWRTSITDMELALPDFFKAFYECLAACEGSREIKDFKDFYLSIADHYVEVLECKIQCEENLTPVIGGYPVEKFVATMYHYLQFAYYKLNDLKNAAPCAVSYLLFDQNDKVMQQNLVYYQYHRDTWGLSDEHFQPRPEAVQFFNVTTLQKELYDFAKENIMDDDEGEVVEYVDDLLELEETS", "values": [
      {"measurement": "2OG-Fe (II) oxygenase / P3H1 activity, in words", "setting": "[1]", "value": "elevated P3H1 activities"}
    ]}
  ]
}
